Results published in US20210145878A1.
Substitutions are numbered along the chain they refer to.

Legend:
CD79b-AF647 = assay: flow cytometry, CAR-transduced primary human T cells stained with recombinant human CD79b extracellular domain-AF647
[1] = target: recombinant human CD79b isoform-2 (short) (human) (UniProt P40259); assay: SPR, Biacore 8k; scFv-Fc captured by anti-human Fc, CD79b as analyte; 1:1 Langmuir

CD79b-AF647, sequence (chain, as listed by the source limits assumed): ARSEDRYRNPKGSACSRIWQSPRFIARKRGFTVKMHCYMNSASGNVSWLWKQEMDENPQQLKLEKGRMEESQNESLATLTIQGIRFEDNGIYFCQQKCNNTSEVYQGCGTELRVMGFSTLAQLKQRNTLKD

B1: SN8 #51 (protein, part only; not given: hinge, transmembrane and signaling domains, part only)
CAR polypeptide, part: DIVLTQSPDSLAVSLGERATINCKASQSVDYEGDSFLNWYQQKPGQPPKLLIYAASNLESGVPDRFSGSGSGTDFTLTISSLQAEDVAVYYCQQSNEDPLTFGGGTKVEIKGGSEGKSSGSGSESKSTGGSQVQLVQSGAEVKKPGASVKVSCKASGYTFTGYWIEWVRQAPGQGLEWMGEILPGGGDTNYNQKFQGKVTFTRDTSTSTAYMELSSLRSEDTAVYYCARRVPVYFDYWGQGTLVTVSS
**Q.** Which aCD79b CAR+ (frequency of CAR+ cells) (CD79b-AF647) does the source give for B1 here?
**A.** 0.048

B2: CD9W23 LH scFv-Fc (Fc fusion, not shown: a dimerising Fc or GST)
chain: B1 CAR polypeptide, part with E32D, A171R
**Q.** B2 was tested. Which Kd [1] did it give?
**A.** 11.5 nM

B3: CD9W59 LH scFv-Fc (Fc fusion, not shown: a dimerising Fc or GST)
chain: B1 CAR polypeptide, part with E32D, A210V
**Q.** Which Kd [1] does the source give for B3 here?
**A.** 6.9 nM
